The text below walks through data of KR20220001106A (dated 2022).

B1: Lu007 (SEQ ID NO 33, SEQ ID NO 34) (antibody, V domains shown)
VH: EVQLVESGGGLVQPGGSLRLSCAASGYDFTHYGMNWIRQAPGKGLEWVGWINTYTGEPTYAADFKRRFTFSLDTSKSTVYLQMNSLRAEDTAVYYCAKYPHYYGTSHWYFDVWGQGTLVTVSS
VL: DIQLTQSPSSLSASVGDRVTITCSASQDISNYLNWYQQKPGKAPKVLIYFTSSLHSGVPSRFSGSGSGTDFTLTISSLQPEDFATYYCQQYSTVPWTFGQGTKVEIKR
notes: Tested as a purified whole antibody, detected with anti-hIgG-Fc; also called variant ranibizumab; variant Lucentis
B2: Hz1 (humanized antibody made with SEQ ID NO 28 and SEQ ID NO 29) (antibody, V domains shown)
VH: EVQLVESGGGLVKPGGSLRLSCAASGIDLNRYSLTWVRQAPGKGLEWVGIVGGSGVTYYANWAKGRFTISRDSAKNSLYLQMNSLRAEDTAVYFCARGSDRSAYAPDIWGPGTLVTVSS
VL: DIQMTQSPSSLSASVGDRVTINCQSSQSIYSNNYLAWYQQKPGKPPKLLLYQASKLASGVPSRFSGSGSGTDFTLTISSLQPEDVATYYCLGVYDDDADNAFGGGTELEIKR
notes: Whole IgG from vector pCEP6-WPRE with an Fc part
B3: Hz2 (humanized antibody made with SEQ ID NO 30 and SEQ ID NO 31) (antibody, V domains shown)
VH: B2 VH with K13Q, A24V, V37I, G49A, S73D, A74S, S77T, F94Y, P111Q
VL: B2 VL with M4L, N22T, P45A, V85F, G104Q, E107K, L108V
notes: as for B2
B4: Hz2-F (antibody with SEQ ID NO 32 and SEQ ID NO 31) (antibody, human IgG1, L234A L235A, V domains shown)
VH: B2 VH with K13Q, A24V, V37I, G49A, S73D, A74S, S77T, F94Y, P111Q
VL: B2 VL with M4L, N22T, P45A, V85F, G104Q, E107K, L108V
notes: copies: 2 + 2
B5: RIgG1 (rabbit antibody made with SEQ ID NO 24 and SEQ ID NO 25) (antibody, V domains shown)
VH: QSVEESGGRLVTPGTPLTLTCTVSGIDLNRYSLTWVRQAPGKGLEWIGIVGGSGVTYYANWTKGRFTISKTSTTVDLKMTSLTTEDTATYFCARGSDRSAYAPDIWGPGTLVTISS
VL: ELDMTQTPSSVSAAVGGTVTINCQSSQSVYSNNYLAWYQQKPGQPPKLLLYQASKLASGVSSRFSGSGSGTHFTLTISGVQCDDAATYYCLGVYDDDADNAFGGGTELEILR
notes: Converted from scFv to whole IgG in vector pCEP6-WPRE, which carries an Fc part; The ELISA detected it with anti-hIgG-Fc; also called 2-19 (IgG form)

Positions count from the first letter of the chain named.

For this assay, the target named is T1, recombinant human VEGF165 (Sino biological) (human, UniProt P15692-4 27-191).
T1 construct: Sino Biological VEGF165 was used in the Octet assay
T1 sequence (P15692 other isoform, or with tags, fused parts or gaps limits assumed): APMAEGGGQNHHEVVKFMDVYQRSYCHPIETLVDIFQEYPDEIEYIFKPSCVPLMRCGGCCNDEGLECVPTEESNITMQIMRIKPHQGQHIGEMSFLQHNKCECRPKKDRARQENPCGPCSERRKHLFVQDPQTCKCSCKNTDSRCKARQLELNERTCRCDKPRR
The experiment in a line: Octet red96E BLI, VEGF165 amine-coupled on AR2G sensor, antibody as analyte, 30 C. For orientation: In BLI a coated tip is dipped into the sample, and binding shifts an interference pattern.
Regarding B1, the Kd worked out at 12.2 pM, the off-rate constant (koff) amounted to 2.89e-06 s⁻¹ and the on-rate constant (kon) came to 237000 M⁻¹ s⁻¹.
With B2, the dissociation constant Kd came to 4.71 pM, the koff turned out to be 3.22e-06 s⁻¹ and the on-rate constant (kon) turned out to be 685000 M⁻¹ s⁻¹.
The corresponding values for B3 are 1.93 pM, 9.73e-07 s⁻¹ and 505000 M⁻¹ s⁻¹.
In the same order, the values of B4 are 3.98 pM, 3.08e-06 s⁻¹ and 775000 M⁻¹ s⁻¹.
The corresponding values for B5 are 3.98 pM, 3.08e-06 s⁻¹ and 775000 M⁻¹ s⁻¹.

A word on the Kd: it is a measure of binding affinity in units of concentration. The koff is the rate constant with which the complex falls apart. By kon is commonly meant the rate constant with which the complex forms.
